According to the supplement of paper PMC10567573:
± gives the standard deviation.

Assay: protein stability index of a GFP-peptide fusion (GPS, HEK-293T) (PSI 1-6); higher = more stable
[1] = treatment: DMSO, c terminus: a fixed tail appended
[2] = treatment: MLN4924 1 uM, 8 h, c terminus: a fixed tail appended
[3] = treatment: DMSO, c terminus: native
[4] = treatment: MLN4924 1 uM, 8 h, c terminus: native
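Further: 24-mer peptide tiles fused after GFP, lentivirally expressed, FACS-sorted into six equal bins by GFP/DsRed ratio, decoded by Illumina sequencing, PSI is the read-weighted mean bin number.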

Row | Sequence | protein stability index [1] | protein stability index [2] | protein stability index [3] | protein stability index [4]
1 | CHHLPVIRQLATSGRFIVIIPRTV [SMG5] | 2.52 ± 0.6 | 2.56 ± 0.33 |  | 
2 | LSRHSKGLQILGHTLRASMRELGL [KCNA4] | 2.25 ± 0.21 | 2.25 ± 0.024 |  | 
3 | ERQGNGQQAMSLAILRVIRLVRVF [KCNA3] | 2.3 ± 0.13 | 2.56 ± 0.59 |  | 
4 | VIASGSSVGHNNLIPLANTGIVNH [CARM1] | 3.11 ± 0.099 | 3.19 ± 0.23 |  | 
5 | GRGGRDRFTAESYTVLGDTLIDGG [FSD1] | 4.06 ± 0.26 | 4.08 ± 0.52 |  | 
6 | TQPPDESCSQNLLITQQIIPVLYC [P2RY14] | 2.28 ± 0.25 | 2.23 ± 0.22 |  | 
7 | TPATPATLSASSSAGGSRTPAMSS [TFE3] | 4.99 ± 0.23 | 4.95 ± 0.3 |  | 
8 | SVSRFFADSGADPKGEPGSKQSPP [FBF1] | 5.09 ± 0.2 | 5.14 ± 0.14 |  | 
9 | SKKEGKRQGPKEPPRKSGSFHSSG [PBXIP1] | 4.98 ± 0.32 | 5.2 ± 0.2 |  | 
10 | TAPQQKPIGKISKNKKKKLKKKQK [SRPK2] | 4.92 ± 0.32 | 4.84 ± 0.67 |  | 
11 | DGNKIFLCHCGKAFSHKSMRDRHV [ZBTB22] | 2.39 ± 0.4 | 2.61 ± 0.56 |  | 
12 | AAAVLFRMSEDKPQDYKKRLSVEL [CTNNB1] | 2.62 ± 0.31 | 2.25 ± 0.27 |  | 
13 | RGVHCWVCDESVRKLSSAVRSGIV [PRIM1] | 2.24 ± 0.22 | 2.19 ± 0.14 |  | 
14 | YISHRELGDCMRTLGYMPTEMELL [CABP4] | 2.27 ± 0.34 | 2.48 ± 0.43 |  | 
15 | MPPATGGGLAESELRPRRGRCGPQ [POMT2] | 4.59 ± 0.17 | 4.61 ± 0.18 |  | 
16 | GEVVTESQKEQRSELDKSSAHSY [PRPH] |  |  | 5.67 ± 0.24 | 5.77 ± 0.1
17 | CWKMLSPGFDSSVYSDLCEAAEAV [ADAMTSL2] | 2.69 ± 0.34 | 3.16 ± 0.71 |  | 
18 | RVRTVLNEKQLHTLRTCYAANPRP [ISL2] | 2.74 ± 0.27 | 2.96 ± 0.2 |  | 
19 | KKQAGRPKGSKGKEKDSPFKPKLY [RBBP5] | 3.74 ± 0.26 | 3.91 ± 0.28 |  | 
20 | IEANFPRRVLPCIPSEEWPNPPTL [FAF2] | 2.9 ± 0.28 | 3.05 ± 0.22 |  | 
21 | IGDSRPPSFHPHAGGGSQENLDND [DVL3] | 5.56 ± 0.18 | 5.41 ± 0.1 |  | 
22 | NSRFQMLFTSFQEPPCEGNTFFCH [NETO1] | 2.23 ± 0.45 | 2.23 ± 0.11 |  | 
23 | TDLVQFLLFKYQMKEPITKAEILE [MAGEA10] | 2.48 ± 0.43 | 2.2 ± 0.23 |  | 

Row | Sequence | protein stability index [1] | protein stability index [2] | protein stability index [3] | protein stability index [4]
24 | QLLEQKQAYWAQAEDTAAPAEESK [CBY2] | 5.01 ± 0.25 | 4.96 ± 0.23 |  | 
25 | NHEEDAGVRCNTPAMGLQKKLRLN [LOXL2] | 4.64 ± 0.12 | 4.5 ± 0.36 |  | 
26 | LHEEEHVLLMAICIVSPDRPGVQD [VDR] | 2.44 ± 0.29 | 2.24 ± 0.25 |  | 
27 | LMSAQTITSETTSTTTTTHITKTV [EPB41L3] | 4.5 ± 0.26 | 4.68 ± 0.14 |  | 
28 | LALYVLFLADEEFDVVVCDQVSAC [ALG2] | 2.92 ± 0.44 | 2.59 ± 0.59 |  | 
29 | NTEEQLEIALAPYQHLEEDMKSLK [MTUS2] | 4.78 ± 0.17 | 4.8 ± 0.28 |  | 
30 | LMADKVLRWERAWFPPAIMGVVSL [ARL6IP1] | 3.13 ± 0.66 | 2.45 ± 0.86 |  | 
31 | TILDIFRFALRFIRPDPRSRVTDP [FAF2] | 2.75 ± 0.48 | 2.75 ± 0.099 |  | 
32 | QIKRKARNEGRNRRRQQVLPLKS [CDKL4] |  |  | 2.87 ± 0.24 | 3.44 ± 0.35
33 | SHSASATGNVCIEEIDVDGKFIRL [LMNB1] | 3.14 ± 0.22 | 3.48 ± 0.23 |  | 
34 | IAHDGQRIYVLGGGTSWTAYSLNK [KLHDC10] | 2.13 ± 0.38 | 2.1 ± 0.066 |  | 
35 | LGWNSTERSLRLQARYHDTPYKPP [MYORG] | 2.88 ± 0.3 | 3.2 ± 0.22 |  | 
36 | PYPASKADIPSVAFSSRLGGSRGA [DCAF4] | 3.71 ± 0.22 | 3.8 ± 0.41 |  | 
37 | GSPSRPLSRRQLCPLTPGPGKALG [C2CD2L] | 3.81 ± 0.35 | 4.11 ± 0.11 |  | 
38 | GLAKEYIDPETKKHIPYREHKSLT [CSNK1G3] | 4.21 ± 0.22 | 4.2 ± 0.13 |  | 
39 | PDARPHRRPHELLPVGGRLPGPTR [HAGHL] | 4.6 ± 0.14 | 4.57 ± 0.3 |  | 
40 | TILLDGRRVKLQLWDTSGQGRFCT [RAB40B] | 2.28 ± 0.22 | 2.14 ± 0.13 |  | 
41 | KRTYWPDLDAKIREALVLRSVRVR [PLD5] | 2.4 ± 0.36 | 2.77 ± 0.38 |  | 
42 | IQQELIKQEQSIISEYEKSLQFDE [RPAIN] | 4.64 ± 0.12 | 4.67 ± 0.079 |  | 
43 | KLATCYFFTVEFGLCKQDGQLRVF [TPH1] | 2.59 ± 0.47 | 2.97 ± 0.56 |  | 
44 | YENFLEDKALMIAMEYAPGGTLAE [NEK8] | 3.54 ± 0.13 | 3.98 ± 0.2 |  | 
45 | YNNRGQIKYFRVDFYEAMDDYTSA [TTC32] | 2.15 ± 0.29 | 2.35 ± 0.24 |  | 
46 | QEIEDKMKGFSFKEDTLLLIAEVM [C8orf76] | 2.54 ± 0.68 | 2.16 ± 0.44 |  | 

Row | Sequence | protein stability index [1] | protein stability index [2] | protein stability index [3] | protein stability index [4]
47 | SRNEFDRTIAETEAAYLKILESSQ [SSNA1] | 3.95 ± 0.22 | 4.04 ± 0.34 |  | 
48 | DYCKGGYHPVKIGDLFNGRYHVIR [SRPK2] | 1.99 ± 0.32 | 2.23 ± 0.25 |  | 
49 | LLKPHSYGRFIRWLNKEKGIFKIE [SPDEF] | 2.49 ± 0.66 | 2.4 ± 0.46 |  | 
50 | KTRRKTSARDASPTPSTDAEYPAN [NCK2] | 5.31 ± 0.21 | 5.45 ± 0.17 |  | 
51 | ESRACLERIQELEDLLAKEKDNSR [LMNB1] | 5.04 ± 0.46 | 5.15 ± 0.27 |  | 
52 | MFPLHLAALNAHSDCCRKLLSSGF [ANKRD44] | 2.57 ± 0.4 | 2.15 ± 0.31 |  | 
53 | PAEGEGRLGRCMRRLRDMVERPHS [KCNG1] | 4.17 ± 0.14 | 4.11 ± 0.35 |  | 
54 | CSRFFIDFPDILEQQRKLETYLQN [TENT5C] | 2.17 ± 0.22 | 2.24 ± 0.12 |  | 
55 | LGKMLIGLAGYLSGYDGTFLFQKP [POMT2] | 2.65 ± 0.86 | 2.45 ± 0.79 |  | 
56 | AGEVVCEAIKNEMNVMLKSSPVDL [IMPA1] | 3.67 ± 0.91 | 4.11 ± 0.25 |  | 
57 | SRRSMAHILKARKVLTEPEVRYYL [PLK2] | 2.48 ± 0.35 | 2.43 ± 0.15 |  | 
58 | LNKKLKSYSLSRKKIVHYTCFDQR [CDC14A] | 2.39 ± 0.26 | 2.35 ± 0.3 |  | 
59 | SAARVVLTSLLACLPAGPRVYFLK [DUSP5] | 2.43 ± 0.23 | 2.41 ± 0.12 |  | 
60 | KKIEFGVVYSCVEGKMYTARKGKG [IMPA1] | 3.06 ± 0.075 | 3.24 ± 0.12 |  | 
61 | VFKCSVSRETECSRVGKQSFIITL [CARM1] | 2.65 ± 1.1 | 2.61 ± 0.67 |  | 
62 | MHKHNETSQKIAARAFAQRYLADL [RSPH3] | 2.63 ± 0.094 | 2.84 ± 0.22 |  | 
63 | DVKKLEEAGFHTVEAVAYAPKKEL [RAD51] | 4.73 ± 0.2 | 4.91 ± 0.078 |  | 
64 | VKSRGKRLALEKVPKVGQRFNRIG [PI4K2A] | 3.23 ± 0.49 | 3.46 ± 0.21 |  | 
65 | ECGKAFSRSSILVQHQRVHTGEKP [ZNF24] | 3.78 ± 0.3 | 3.96 ± 0.14 |  | 
66 | VPYHIARIPYTKSQTEAHYSCQSK [P2RY14] | 3.47 ± 0.17 | 3.53 ± 0.36 |  | 
67 | ENLIRERSQQQEPLLCPSYQSYFK [KRT33B] | 3.39 ± 0.26 | 3.59 ± 0.59 |  | 
68 | FKDLNESLNALEDQDLDALMADLV [APBB1IP] | 3.19 ± 0.26 | 3.52 ± 0.26 |  | 
69 | EVHERNDGIDPFPLLMNRQRVPKV [EFHC1] | 3.67 ± 0.31 | 3.64 ± 0.3 |  | 

Row | Sequence | protein stability index [1] | protein stability index [2] | protein stability index [3] | protein stability index [4]
70 | GYSPNGRDANGWTLLHFSAARGKE [ASB7] | 2.91 ± 0.47 | 2.94 ± 0.19 |  | 
71 | ESSDLQMDVMPGEGDLPQMEVGSG [EID1] | 5.42 ± 0.15 | 5.21 ± 0.3 |  | 
72 | LWENTRFTDCSFFVRGQEFKAHKS [SPOPL] | 2.74 ± 0.32 | 2.98 ± 0.25 |  | 
73 | KAKANGITMYAVGVGKAIEEELQE [MATN2] | 3.83 ± 0.33 | 4.12 ± 0.32 |  | 
74 | WAEIAKMLPGRTDNAVKNHWNSTI [MYBL2] | 2.18 ± 0.28 | 2.16 ± 0.18 |  | 
75 | GSEVYRMLREPAEPVAAEPKQSGS [PDLIM4] | 5.12 ± 0.25 | 5.03 ± 0.22 |  | 
76 | HNIPLETIIPILQHLKYKEHPEAL [INTS3] | 2.51 ± 0.31 | 2.55 ± 0.38 |  | 
77 | HGSGGSGYPAAPPAVPFAPHFLQG [TBX6] | 2.94 ± 0.3 | 3.06 ± 0.31 |  | 
78 | ISHWHPNITINIVDDHTPWVKGSV [CLPTM1] | 2.37 ± 0.22 | 2.03 ± 0.34 |  | 
79 | RRRGSDPASGEVEASQLRRLNIKK [TMEM40] | 5.26 ± 0.23 | 5.02 ± 0.24 |  | 
80 | GAASLPSELIVHIFSFLPAPDRLR [FBXO33] | 2.6 ± 0.74 | 2.74 ± 0.39 |  | 
81 | ELIFSARVLDGKEAKAVGLISHVL [AUH] | 2.58 ± 0.92 | 2.18 ± 0.25 |  | 
82 | GEQPEPGEAAAGGAAEEARRLEQR [ACBD3] | 5.53 ± 0.34 | 5.44 ± 0.24 |  | 
83 | QAKPEKAAVAQKPRSHFTTPAPMS [MYBL2] | 4.44 ± 0.34 | 4.39 ± 0.11 |  | 
84 | TGFIFQKVGKLAATAVGGGFFLLQ [FUNDC2] | 2.36 ± 0.21 | 2.09 ± 0.51 |  | 
85 | DPNTRPVGEKNCTGPPCDRQWTVS [ADAMTSL2] | 4.89 ± 0.15 | 4.86 ± 0.32 |  | 
86 | SGRTQAQTRRASALIDRPAPYFER [EPB41L3] | 3.5 ± 0.56 | 3.72 ± 0.36 |  | 
87 | ATKFKQLYRSRMNSLEMTPAVRQR [HMOX1] | 3.32 ± 0.21 | 3.56 ± 0.27 |  | 
88 | ASKWGMSYDELCFLEQRPQSPTLE [EDARADD] | 3.67 ± 0.12 | 3.81 ± 0.062 |  | 
89 | ILNSVEKYDPHTGHWTNVTPMATK [KLHL12] | 3.15 ± 0.29 | 3.43 ± 0.44 |  | 
